# Measured values taken from US9951373B2, “Oplophorus-derived luciferases, novel coelenterazine substrates, and methods of use” (Promega Corporation, priority 2010, dated 2018).
# B1: 9B8: IV variant with Q18L, F68Y, L72Q, M75K (SEQ ID NO: 19) (protein)
# chain: MVFTLEDFVGDWRQTAGYNLDQVLEQGGLSSLFQKLGVSVTPIQKIVLSGENGLKIDIHVIIPYEGLSGYQMGQIEKIFKVVYPVDDHHFKVILHYGTLVIDGVTPNMIDYFGRPYEGIAVFDGKKITVTGTLWNGNKIIDERLINPDGSLLFRVTINGVTGWRLCERILA
# Tests used:
# [1] = Stability of secreted OgLuc variants in saved media; format: physicochemical; details: secreted variant in saved media
# Method: To determine if the secretion signal sequence of OgLuc facilitates its secretion, the OgLuc variants 9B8, V2 and L27V were cloned into pF4Ag containing an N-terminal OgLuc secretion signal sequence. The variants were also cloned into vectors without the secretion signal sequence. CHO or HeLa cells were then plates at 100,000 cells/well in 1 mL F12 media with 10% FBS and 1× sodium pyruvate (CHO cells) or DMEM with 10% FBS and 1× sodium pyruvate (HeLa cells) into 12-well plates and incubated overnight at 37° C., 5% CO2.
# After the overnight incubation, the cells were transfected with 1 μg plasmid DNA containing 9B8, V2, or L27V with or without the secretion signal sequence using the TRANSIT®-LT1 transfection reagent (Mirus Bio) and OPTI-MEMO media (Invitrogen). The cells were again incubated overnight at 37° C., 5% CO2.
# After the second overnight incubation, the media was removed and saved for analysis. […] To 10 μL of cell lysate or saved media from each sample, 50 μL assay buffer with 40 μM PBI-3939 was added, and luminescence measured as described above.
# To determine the stability of the secreted variants, 150 μL aliquots of the saved media from each sample was placed at 37° C. or 50° C. The aliquots were then removed at different time points (0, 1, 2, 3, 5, 6, and 7 […]), frozen on dry ice, and kept at −20° C. until assayed. To assay for stability, the media aliquots were thawed to room temperature, and 10 μL of each aliquot was mixed with assay buffer with PBI-3939 (pH 6.0) as described above. Luminescence was measured as above, and the half-life (t50) determined (Table 34).
# [2] = Stability of variants expressed in HEK293 cells; format: physicochemical; details: 20 μM PBI-3939
# Method: The variants 9B8 and V2 (9B8+K33N+T39T+K43R+Y68D) were also screened in HEK293 cells to determine their stability. The variants were cloned into pF4Ag and transfected into HEK293 cells (15,000 cells/well) as previously described. After transfection, the cells were lysed in assay reagent (as previously described; no PBI-3939), and luminescence measured using the assay reagent with 20 μM PBI-3939. […] This is consistent with the half-life seen for these variants in E. coli (Table 26).
# [3] = tested on: NIH3T3 cells; assay: Luminescence of OgLuc variants expressed in NIH3T3 cells; format: cell-based; details: PBI-3939
# Method: (§1) The PCR library in the pF4Ag-based non-fusion background was screened for additional variants with increased luminescence compared to 9B8 opt+K33N+170G (SEQ ID NOs: 68 and 69). Selected variants were then assayed in HEK293 and NIH3T3 cells. For each cell type, 15,000 cells were plated and grown overnight at 37° C. The next day, the cells were transfected as described in Example 25 with 10 ng pGL4.13 (Promega Corp.) as a transfection control and 100 ng of the OgLuc test DNA. The media was removed, and the cells were lysed with 100 μL of lysis buffer as described in Example 25 except the lysis buffer contained 100 mM MES pH 6.0 instead of HEPES, and luminescence measured using a GLOMAX® Luminometer.
# (§2) Based on the above data, further combination variants were designed and generated (see Table 10) in the context of the pF4Ag-based non-fusion vector background without the 170G. The variants were analyzed in E. coli, HEK293 and NIH3T3 cells as described above and compared to 9B8 opt+K33N. The variants were also examined for luminescence with native coelenterazine.
# (§3) The brightness of the variants expressed in HEK293 and NIH3T3 cells was measured as described previously. The luminescence of the variants was normalized to the luminescence generated by 9B8 opt (Table 27).
# [4] = Thermal stability of OgLuc variants at 60° C.; format: physicochemical; details: 60° C., assay buffer MES pH 6.0
# Method: Aliquots were removed at different time-points and placed on dry ice to freeze the samples. […] Luminescence was measured on a GLOMAX® luminometer (Promega Corp.).
# The thermal stability of the variants at 60° C. was examined as described above, except the assay buffer contained 100 mM MES pH 6.0 instead of HEPES.
# [5] = tested on: HEK293 cells; details: mole-to-mole basis, HT7 fusions
# [6] = tested on: HEK293 cells; assay: Luminescence of OgLuc variants expressed in HEK293 cells; format: cell-based, human; details: PBI-3939
# Method: as §1, §2, §3
# [7] = Protein (thermal) stability of OgLuc variants at 50° C.; format: physicochemical; details: bacterial lysates, native coelenterazine
# Method: Lysates of E. coli containing 15C1, 9B8, 9F6, 8A3 or IV and E. coli expressing hRL (SEQ ID NO: 30 and 31) were prepared from induced cultures as described previously. Lysate samples were diluted 1:1000 with a buffer containing 10 mM HEPES pH 7.5 with 0.1% gelatin. Diluted lysate (100 μL) samples, in replicate 96-well plates, were incubated at 50° C. At different time points, plates were placed at −70° C. (minus seventy degrees Celsius). Prior to measuring the luminescence as described previously, each plate was thawed at room temperature, i.e., 22° C., for 10 min. Samples (10 μL of each thawed sample) were assayed using native coelenterazine as a substrate. Luminescence was measured immediately after addition of assay buffer for each time point plate. The half-life of the protein, which indicated protein stability, was calculated from the luminescence data for each time point using methods known in the art.
# [8] = Luminescence of 9B8 opt+K33N derived variants in E. coli; format: biochemical; details: bacterial lysates
# Method: Luminescence generated from the lysates was measured using the novel PBI-3939 and native coelenterazine as substrates. The relative specificity of the variants for PBI-3939 and native coelenterazine was calculated as described previously.
# A new OgLuc library was created using 9B8opt+K33N as a starting template. The random library was created using DIVERSIFY® PCR Random Mutagenesis Kit (ClonTech; Catalog #630703). Condition 5 (as listed in the user manual) was used to generate additional variants, and the average mutation rate was calculated to be 2.6 mutations per gene by compiling sequence data from 83 randomly selected clones. This PCR library was cloned into the pF4Ag-based, non-fusion vector background described previously and the sandwich background, i.e., Id-OgLuc-HT7 (described in Example 45). Variants in the pF4Ag-base non-fusion vector background are designated with (NF). Variants in the sandwich vector background are designated with (F). In order to clone the PCR product into both vectors, an amino acid, i.e., a glycine, was appended to the variant sequence in pF4Ag, generating a new position 170 in the OgLuc variant (“170G”). The 170G is present in the sandwich construct, but in this case is considered part of the linker between OgLuc and HT7. For each library, 4,400 E. coli clones were assayed as described previously with the following exceptions. […] The assay buffer contained 100 mM MES pH 6.0 instead of HEPES, and 35 mM thiourea. The assay volumes were as follows: 10 μL cells, 40 μL, lysis buffer, and 50 μL, assay buffer.
# E. coli lysates containing the variants were prepared and analyzed as described previously. Luminescence generated from the lysates was measured using the novel PBI-3939 and native coelenterazine as substrates. The luminescence of the variants was normalized to the luminescence generated by 9B8 opt (Table 12). The relative specificity of the variants for PBI-3939 and native coelenterazine was calculated by dividing the luminescence of the variants using PBI-3939 as a substrate with the luminescence of the variants using native coelenterazine as a substrate (Table 12).
# [9] = Enzyme kinetics of OgLuc variants in E. coli lysates; format: biochemical; details: PBI-3939, E. coli lysates
# Method: Using methods known in the art, enzyme kinetic assays measuring luminescence were performed with the lysates of E. coli containing IV and the IV variants 15C1, 9B8, 9F6, and 9A3. […] Two fold serial dilutions of PBI-3939 in the assay buffer described previously in Example 26 were assayed with the diluted lysates. […] Variants 9B8 and 9F6 had higher Km values compared to IV while Km values for the other variants were unchanged.
# Luminescence was measured on a TECAN® INFINITE® F500 luminometer.
# The enzyme kinetics values were determined for the OgLuc variants as described previously, except luminescence was measured using a GLOMAX® luminometer. Three replicates were used for each variant.
molecule,measurement,setting,value
B1,½ life 37 C.,[1],8 days
same,½ life 50 C.,[1],3 h
same,half-life,[2],5.2 h
same,"luminescence normalized to 9B8 opt, NIH3T3",[3],1.0
same,1/2 life hours,[4],5.1 h
same,fold brighter than Luc2,[5],approximately 15 fold
same,fold brighter than hRL,[5],> 100 fold
same,"luminescence normalized to 9B8 opt, HEK293",[6],1.0
same,½ life (hrs),[7],5.8 h
same,½ life (min),[7],346.6 min
same,Fold over coelenterazine,[8]; luminescence with PBI-3939 divided by luminescence with native coelenterazine,7
same,Fold over 9B8,[8]; luminescence with PBI-3939 normalized to 9B8 opt,1.0
same,Km,[9],7.7 µM
same,Vmax,[9],"86,000,000 RLU/0.5 sec"
